Measured values: PMC5801593 (Frontiers in Molecular Biosciences, 2017)

B1: IscX (natural protein, E. coli, UniProt P0C0L9 1-66, looked up)
chain: MGLKWTDSREIGEALYDAYPDLDPKTVRFTDMHQWICDLEDFDDDPQASNEKILEAILLVWLDEAE
modifications: also: mixed disulfide with β-mercaptoethanol on majority of protein, most likely
notes: IscX (YfhJ) of E. coli; Predicted mass 7859 Da, observed 7935 Da; the predicted mass may include some; also called YfhJ; source: E. coli BL21(DE3), purified (Ni-NTA, TEV cleavage, gel filtration)
B2: biotinylated CyaY (natural protein, E. coli, UniProt P27838 1-106, looked up)
chain: MNDSEFHRLADQLWLTIEERLDDWDGDSDIDCEINGGVLTITFENGSKIIINRQEPLHQVWLATKQGGYHFDLKGDEWICDRSGETFWDLLEQAATQQAGETVSFR
modifications: biotin (site not stated)
notes: CyaY, frataxin ortholog of E. coli; Same protein as m3, biotinylated to hold it on streptavidin biosensors; also called immobilized CyaY; source: E. coli BL21(DE3), purified (Ni-NTA, TEV cleavage, gel filtration), biotinylated

Assays:
Conditions in all cases: both partners purified
[1] = target: T1, IscU-IscS complex (immobilized IscS saturated with IscU) (E. coli, UniProt P0A6B7 1-404; P0ACD4 2-128, biotin (site not stated)); assay: BLI; IscS immobilised and saturated by IscU (10 μM), titrated with IscX 0-60 μM; apparent Kd, 1:1 model
T1 construct: IscS, cysteine desulfurase of E. coli; as the chain of m7; IscU of E. coli; as the chain of m4; also called IscS saturated by IscU; source: formed on the biosensor from purified E. coli-made proteins: immobilized IscS saturated by IscU (10 μM); copies: 2 +

[2] = target: T2, cysteine desulfurase IscS (E. coli, UniProt P0A6B7 1-404); assay: native MS; ESI-MS under non-denaturing conditions; IscS 3 μM in 250 mM ammonium acetate pH 8, IscX at 0-16 IscX/IscS molar ratios, 5 min at room temperature; sequential binding model (DynaFit)
T2 construct: IscS, cysteine desulfurase of E. coli; Dimer by native MS (observed 91,035 Da, predicted 91,037 Da); An adduct of about +304 Da is put down to beta-mercaptoethanol hetero-disulfides; also called wild-type IscS; source: E. coli BL21(DE3), purified (Ni-NTA, TEV cleavage, gel filtration)

[3] = target: T2, cysteine desulfurase IscS; assay: BLI; competition: biotinylated CyaY immobilised on streptavidin biosensors, exposed to 10 μM IscS at IscX 0-60 μM; 20 mM HEPES pH 7.5, 150 mM NaCl, 2 mM TCEP, 0.5 mg/mL BSA, 25°C; apparent Kd from the response reduction, 1:1 model
biotinylated IscS = target: T3, biotinylated IscS (E. coli, UniProt P0A6B7 1-404, biotin (site not stated)); assay: BLI; biotinylated IscS immobilised on streptavidin biosensors, IscX 0-50 μM; 20 mM HEPES pH 7.5, 150 mM NaCl, 2 mM TCEP, 0.5 mg/mL BSA, 25°C; apparent Kd, 1:1 model; data not shown
T3 construct: IscS, cysteine desulfurase of E. coli; Same protein as m1, biotinylated to hold it on streptavidin biosensors; also called immobilized IscS; source: E. coli BL21(DE3), purified (Ni-NTA, TEV cleavage, gel filtration), biotinylated

Binder | Kd [1] | Kd of the first two IscX per IscS dimer (primary site) [2] | Kd of the third and fourth IscX per IscS dimer (secondary site) [2] | stoichiometry N [2] | Kd [3] | Kd (biotinylated IscS) | binding result [3]
B1 | 8 ± 2 µM | 13.7 ± 0.4 µM | 170 ± 10 µM | ≤ 4 IscX per IscS dimer | 6 ± 2 µM | 8 ± 3 µM | 
B2 |  |  |  |  |  |  | binds
